US20120039908A1

molecular target: T1, S100b protein (Cat. No. 559290, Calbiochem); assay: ELISA, S100b coated on plate; reference baseline bioreactor R39
T1 sequence (P04271 2-92, species assumed, looked up): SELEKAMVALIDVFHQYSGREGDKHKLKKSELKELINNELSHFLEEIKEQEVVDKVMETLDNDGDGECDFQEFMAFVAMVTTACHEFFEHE

RAGE-Fc fusion protein from bioreactor R66 (CD OptiCHO lipid-free, 2-deoxy-D-glucose 1 g/L at day 9), Day 12, sequence (chain): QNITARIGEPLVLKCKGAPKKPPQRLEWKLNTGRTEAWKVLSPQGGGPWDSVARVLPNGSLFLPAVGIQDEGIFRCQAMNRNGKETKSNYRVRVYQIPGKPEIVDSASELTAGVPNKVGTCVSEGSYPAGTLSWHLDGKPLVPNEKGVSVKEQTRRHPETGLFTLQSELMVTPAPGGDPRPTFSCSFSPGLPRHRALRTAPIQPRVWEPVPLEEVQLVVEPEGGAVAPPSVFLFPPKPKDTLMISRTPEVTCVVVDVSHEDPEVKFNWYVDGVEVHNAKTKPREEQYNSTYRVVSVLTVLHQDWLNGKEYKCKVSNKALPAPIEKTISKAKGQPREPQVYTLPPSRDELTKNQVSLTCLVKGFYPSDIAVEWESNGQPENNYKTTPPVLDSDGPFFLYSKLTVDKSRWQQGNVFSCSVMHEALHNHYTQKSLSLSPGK
RAGE-Fc fusion protein from bioreactor R80 (CD CHO, 2-deoxy-D-glucose 1 g/L at day 7; 9), Day 14, sequence (chain): as above
RAGE-Fc fusion protein from bioreactor R79 (Ex Cell 325 PF CHO, 2-deoxy-D-glucose 1 g/L at day 7; 9), Day 12, sequence (chain): as above
RAGE-Fc fusion protein from bioreactor R79 (Ex Cell 325 PF CHO, 2-deoxy-D-glucose 1 g/L at day 7; 9), Day 13, sequence (chain): as above
RAGE-Fc fusion protein from bioreactor R39 (control, no 2-deoxy-D-glucose), Day 12, sequence (chain): as above
RAGE-Fc fusion protein from bioreactor R66 (CD OptiCHO lipid-free, 2-deoxy-D-glucose 1 g/L at day 9), Day 14, sequence (chain): as above
RAGE-Fc fusion protein from bioreactor R53 (2-deoxy-D-glucose 1 g/L at day 9; 11), Day 10, sequence (chain): as above
RAGE-Fc fusion protein from bioreactor R80 (CD CHO, 2-deoxy-D-glucose 1 g/L at day 7; 9), Day 12, sequence (chain): as above
RAGE-Fc fusion protein from bioreactor R53 (2-deoxy-D-glucose 1 g/L at day 9; 11), Day 12, sequence (chain): as above

Substance	Relative binding compared to control [%]	fold increase in S100b binding activity compared to baseline bioreactor R39 [fold]	fold S100b binding activity compared to control bioreactor R39 [fold]
RAGE-Fc fusion protein from bioreactor R53 (2-deoxy-D-glucose 1 g/L at day 9; 11), Day 10	296		
RAGE-Fc fusion protein from bioreactor R66 (CD OptiCHO lipid-free, 2-deoxy-D-glucose 1 g/L at day 9), Day 12	3250	32	
RAGE-Fc fusion protein from bioreactor R79 (Ex Cell 325 PF CHO, 2-deoxy-D-glucose 1 g/L at day 7; 9), Day 12	527	5	
RAGE-Fc fusion protein from bioreactor R80 (CD CHO, 2-deoxy-D-glucose 1 g/L at day 7; 9), Day 14	8080		80

Results, then the substance that gave them:

Relative binding compared to control [%]	fold increase in S100b binding activity compared to baseline bioreactor R39 [fold]	fold S100b binding activity compared to control bioreactor R39 [fold]	Substance
100			RAGE-Fc fusion protein from bioreactor R39 (control, no 2-deoxy-D-glucose), Day 12
1520			RAGE-Fc fusion protein from bioreactor R53 (2-deoxy-D-glucose 1 g/L at day 9; 11), Day 12
3520			RAGE-Fc fusion protein from bioreactor R66 (CD OptiCHO lipid-free, 2-deoxy-D-glucose 1 g/L at day 9), Day 14
2960			RAGE-Fc fusion protein from bioreactor R79 (Ex Cell 325 PF CHO, 2-deoxy-D-glucose 1 g/L at day 7; 9), Day 13
1630			RAGE-Fc fusion protein from bioreactor R80 (CD CHO, 2-deoxy-D-glucose 1 g/L at day 7; 9), Day 12
